{
  "source": "patent US10137183B2",
  "about": "“Peptide compositions having 4 linked CTL epitopes and uses thereof” (TAIHO PHARMACEUTICAL CO., LTD., priority 2013, dated 2018)",
  "target": "T1, Human 20S immunoproteasomes (Homo sapiens, UniProt P28062+P28065+P40306)",
  "T1 construct": "purchased R&D systems",
  "test": "Peptide cleavage with human 20S immunoproteasomes (i20S), LC/MS-MS of fragments",
  "format": "biochemical",
  "details": "66.7 μg/mL peptide, 37° C., 1, 2 or 4 hours",
  "experimental": "Cleavage samples of peptides having 4 linked epitopes were prepared in the manner described below. Specifically, peptides having 4 linked epitopes were diluted to 66.7 μg/mL with a reaction buffer (20 mM HEPES-KOH, pH 7.8, 2 mM MgAc2, 2 mM dithiothreitol), and the resultant was dispensed into reaction tubes in amounts of 300 μL per tube. Human 20S immunoproteasomes (R&D systems) were added thereto in amounts of 2 μg per tube, the mixtures were agitated, and the resultants were then subjected to incubation with shaking at 37° C. for 1, 2, or 4 hours. […]\nSubsequently, the obtained cleavage samples of the peptides having 4 linked epitopes were applied to the LC/MS-MS systems (Acquity UPLC system, Waters; Synapt G2 HDMS, Waters), so as to perform comprehensive analysis of the molecular weights of the peptide fragments. With the use of analytical software (MassLynx, ver. 4.1, SCN712, Waters), the samples were analyzed, and the peptide fragments were identified. The peptides having 4 linked epitopes were evaluated to be cleavable upon development of any of a peptide in which the epitope peptide was cleaved, a peptide comprising arginine residues added to the N terminus of the epitope peptide, or a peptide comprising an arginine dimer added to the N terminus of the epitope peptide, as a result of cleavage with immunoproteasomes.",
  "data": [
    {"sequence": "ASLDSDPWV (listed as Homo sapiens) [PEP2]", "values": [
      {"measurement": "cleavage determining the C terminal amino acids of the CTL epitope peptide", "value": "required to be located at positions nearest to the C terminus"}
    ]},
    {"sequence": "ILEQSGEWWK (listed as Homo sapiens) [PEP10]", "values": [
      {"measurement": "cleavage determining the C terminal amino acids of the CTL epitope peptide", "value": "required to be located at positions nearest to the C terminus"}
    ]}
  ]
}
